From paper PMC2680606 (Biochemistry, 2009)

Biological target: Myc-UbcM2-His6 (mouse, UniProt P52483 1-207)
Assay: pull-down

Chain of Myc-UbcM2-His6 (P52483 whole entry): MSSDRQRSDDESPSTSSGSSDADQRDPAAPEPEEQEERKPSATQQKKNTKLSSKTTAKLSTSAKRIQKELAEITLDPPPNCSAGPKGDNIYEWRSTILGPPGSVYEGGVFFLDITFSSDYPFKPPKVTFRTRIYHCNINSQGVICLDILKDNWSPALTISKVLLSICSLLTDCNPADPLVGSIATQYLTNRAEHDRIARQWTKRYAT

B1: ^35S-RCBTB1 fragment: BTB domain and C-terminal 87 residues (domain or fragment, human, UniProt Q8NDN9 360-531, looked up)
chain: LKKEFDSPETADLKFRIDGKYIHVHKAVLKIRCEHFRSMFQSYWNEDMKEVIEIDQFSYPVYRAFLQYLYTDTVDLPPEDAIGLLDLATSYCENRLKKLCQHIIKRGITVENAFSLFSAAVRYDAEDLEEFCFKFCINHLTEVTQTAAFWQMDGPLLKEFIAKASKCGAFKN
modifications: 35S-labelled methionine and cysteine
With B1 the “fold binding against full-length RCBTB1” value was 2 fold.
